Measured values published in US20170101477A1.

Experiments:
[1] = target: human LEPR Ig-CRH2-FNIII-MMH (human) (UniProt P48357); assay: Luminex, myc-captured LEPR protein
[2] = target: human LEPR Ig (D3)-MMH (human) (UniProt P48357); assay: Luminex, myc-captured LEPR protein
[3] = target: human LEPR CRH1 (D1,D2)-MMH (human) (UniProt P48357); assay: Luminex, myc-captured LEPR protein
[4] = target: human LEPR CRH1-Ig (D2,D3)-MMH (human) (UniProt P48357); assay: Luminex, myc-captured LEPR protein
[5] = target: human LEPR CRH2-MMH (human) (UniProt P48357); assay: Luminex, myc-captured LEPR protein
human LEPR CRH2-MMH (human), sequence (P48357 428-634 limits assumed): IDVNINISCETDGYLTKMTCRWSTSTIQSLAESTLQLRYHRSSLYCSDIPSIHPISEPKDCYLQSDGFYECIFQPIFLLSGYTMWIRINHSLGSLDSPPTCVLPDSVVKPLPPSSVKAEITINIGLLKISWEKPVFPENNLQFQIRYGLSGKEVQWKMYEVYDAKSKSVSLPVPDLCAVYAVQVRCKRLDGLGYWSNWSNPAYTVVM

[6] = target: human LEPR extracellular domain expressed with a C-terminal myc-myc-hexahistidine tag (hLEPR.mmh) (human) (UniProt P48357); assay: Luminex, myc-captured LEPR protein
human LEPR extracellular domain expressed with a C-terminal myc-myc-hexahistidine tag (hLEPR.mmh) (human), sequence (P48357 other isoform, or with tags, fused parts or gaps): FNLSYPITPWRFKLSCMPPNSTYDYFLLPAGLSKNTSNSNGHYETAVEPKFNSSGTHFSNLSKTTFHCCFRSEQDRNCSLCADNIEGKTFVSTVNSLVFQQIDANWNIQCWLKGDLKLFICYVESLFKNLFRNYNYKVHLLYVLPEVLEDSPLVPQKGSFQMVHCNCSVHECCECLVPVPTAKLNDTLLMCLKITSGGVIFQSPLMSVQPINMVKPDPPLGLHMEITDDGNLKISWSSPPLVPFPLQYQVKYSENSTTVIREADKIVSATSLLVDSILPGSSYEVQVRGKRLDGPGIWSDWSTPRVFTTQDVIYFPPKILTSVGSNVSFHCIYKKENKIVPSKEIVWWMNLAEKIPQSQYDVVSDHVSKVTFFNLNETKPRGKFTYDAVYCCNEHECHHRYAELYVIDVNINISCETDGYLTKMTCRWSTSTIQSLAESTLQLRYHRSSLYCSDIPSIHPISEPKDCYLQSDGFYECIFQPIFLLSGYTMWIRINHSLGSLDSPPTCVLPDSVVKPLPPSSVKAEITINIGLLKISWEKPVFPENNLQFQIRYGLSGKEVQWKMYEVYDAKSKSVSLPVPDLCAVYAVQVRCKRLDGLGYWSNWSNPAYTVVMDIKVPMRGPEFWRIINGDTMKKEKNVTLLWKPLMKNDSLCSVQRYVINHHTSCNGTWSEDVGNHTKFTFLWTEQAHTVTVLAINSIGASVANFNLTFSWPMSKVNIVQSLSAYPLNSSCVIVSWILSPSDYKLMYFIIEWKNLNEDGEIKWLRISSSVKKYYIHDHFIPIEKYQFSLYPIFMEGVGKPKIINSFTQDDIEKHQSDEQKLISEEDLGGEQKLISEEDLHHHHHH

[7] = target: human LEPR CRH1 (D1,D2,D3)-MMH (human) (UniProt P48357); assay: Luminex, myc-captured LEPR protein
[8] = target: human LEPR FNIII-MMH (human) (UniProt P48357); assay: Luminex, myc-captured LEPR protein
human LEPR FNIII-MMH (human), sequence (P48357 636-839 limits assumed): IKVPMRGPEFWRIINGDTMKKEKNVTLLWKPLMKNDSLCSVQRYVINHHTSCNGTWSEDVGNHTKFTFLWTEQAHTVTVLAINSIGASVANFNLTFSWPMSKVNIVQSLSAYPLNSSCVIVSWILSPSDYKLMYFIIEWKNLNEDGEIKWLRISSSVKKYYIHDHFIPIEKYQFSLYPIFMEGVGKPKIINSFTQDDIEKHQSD

[9] = target: human LEPR CRH1 (D1)-MMH (human) (UniProt P48357); assay: Luminex, myc-captured LEPR protein
[10] = target: Mycx2-hLepR(ecto)-GPI anchored, on HEK293/hLEPR-GPI cells (human) (UniProt P48357); assay: FACS, 10 nM Ab, HEK293/hLEPR-GPI, 1 uM Leptin
Mycx2-hLepR(ecto)-GPI anchored, on HEK293/hLEPR-GPI cells (human), sequence (P48357 22-839): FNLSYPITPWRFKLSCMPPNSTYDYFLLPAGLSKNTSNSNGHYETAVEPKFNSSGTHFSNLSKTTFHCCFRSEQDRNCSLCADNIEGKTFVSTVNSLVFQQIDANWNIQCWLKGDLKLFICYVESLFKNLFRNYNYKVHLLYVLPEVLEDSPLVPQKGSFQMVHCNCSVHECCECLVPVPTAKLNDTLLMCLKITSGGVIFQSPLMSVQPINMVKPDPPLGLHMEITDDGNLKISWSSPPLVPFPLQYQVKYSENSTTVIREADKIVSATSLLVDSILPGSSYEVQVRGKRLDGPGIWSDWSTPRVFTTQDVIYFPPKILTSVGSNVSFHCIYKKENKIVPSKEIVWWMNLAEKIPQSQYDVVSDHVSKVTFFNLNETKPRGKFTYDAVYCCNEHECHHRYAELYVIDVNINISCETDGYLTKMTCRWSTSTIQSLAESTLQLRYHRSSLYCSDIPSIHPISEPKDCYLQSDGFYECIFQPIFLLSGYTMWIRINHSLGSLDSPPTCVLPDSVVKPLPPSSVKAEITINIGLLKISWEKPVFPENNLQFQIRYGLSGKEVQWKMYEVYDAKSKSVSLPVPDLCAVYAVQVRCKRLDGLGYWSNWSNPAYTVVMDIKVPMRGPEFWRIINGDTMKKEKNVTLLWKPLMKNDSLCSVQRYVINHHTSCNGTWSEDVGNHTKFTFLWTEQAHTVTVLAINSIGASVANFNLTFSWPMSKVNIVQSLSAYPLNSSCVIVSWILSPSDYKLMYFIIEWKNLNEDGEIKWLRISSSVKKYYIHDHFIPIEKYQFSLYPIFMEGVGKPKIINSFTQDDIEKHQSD

[11] = target: extracellular domain portion of LEPR protein expressed with a C-terminal human Fc tag (hLEPR.hFc) (human); assay: ELISA, 500 nM Ab, 10 nM hLEPR.hFc to coated hLeptin
extracellular domain portion of LEPR protein expressed with a C-terminal human Fc tag (hLEPR.hFc) (human), sequence (chain, as listed by the source limits assumed): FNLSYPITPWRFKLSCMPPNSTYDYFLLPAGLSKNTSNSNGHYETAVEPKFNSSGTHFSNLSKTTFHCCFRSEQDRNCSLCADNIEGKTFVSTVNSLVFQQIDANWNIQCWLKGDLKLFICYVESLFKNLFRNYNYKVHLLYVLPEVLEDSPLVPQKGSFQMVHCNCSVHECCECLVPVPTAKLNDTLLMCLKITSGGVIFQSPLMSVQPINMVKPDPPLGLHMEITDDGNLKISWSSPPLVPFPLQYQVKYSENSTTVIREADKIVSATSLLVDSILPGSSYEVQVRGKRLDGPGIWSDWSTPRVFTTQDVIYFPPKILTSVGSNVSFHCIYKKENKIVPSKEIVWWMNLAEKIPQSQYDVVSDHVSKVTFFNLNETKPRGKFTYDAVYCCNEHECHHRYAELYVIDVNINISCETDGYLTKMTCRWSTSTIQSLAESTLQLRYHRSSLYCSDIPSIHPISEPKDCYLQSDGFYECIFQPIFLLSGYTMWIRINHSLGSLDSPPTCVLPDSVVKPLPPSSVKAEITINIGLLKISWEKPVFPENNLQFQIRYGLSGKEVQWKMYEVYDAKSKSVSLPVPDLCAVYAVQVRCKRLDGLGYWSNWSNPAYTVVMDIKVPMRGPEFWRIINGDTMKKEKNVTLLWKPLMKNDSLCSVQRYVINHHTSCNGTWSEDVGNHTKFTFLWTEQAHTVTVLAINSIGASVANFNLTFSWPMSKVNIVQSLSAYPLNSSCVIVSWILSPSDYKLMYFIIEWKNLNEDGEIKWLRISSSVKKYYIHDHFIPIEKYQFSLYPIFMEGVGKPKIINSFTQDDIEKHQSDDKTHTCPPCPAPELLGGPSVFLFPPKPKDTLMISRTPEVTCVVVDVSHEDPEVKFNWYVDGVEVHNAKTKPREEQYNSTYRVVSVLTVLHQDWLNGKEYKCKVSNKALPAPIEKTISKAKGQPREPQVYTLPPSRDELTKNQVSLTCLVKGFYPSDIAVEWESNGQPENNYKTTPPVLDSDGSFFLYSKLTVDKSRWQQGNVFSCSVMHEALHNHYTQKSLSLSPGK

[12] = target: Mycx2-hLepR(ecto)-GPI anchored, on HEK293/hLEPR-GPI cells (human) (UniProt P48357); assay: FACS, 10 nM Ab, HEK293/hLEPR-GPI, no added Leptin
[13] = target: macaca fascicularis LEPR extracellular domain expressed with a C-terminal myc-myc-hexahistidine tag (mfLEPR.mmh) (Macaca fascicularis); assay: SPR, mAb captured, 37C
macaca fascicularis LEPR extracellular domain expressed with a C-terminal myc-myc-hexahistidine tag (mfLEPR.mmh) (Macaca fascicularis), sequence (Q9MYL0 other isoform, or with tags, fused parts or gaps): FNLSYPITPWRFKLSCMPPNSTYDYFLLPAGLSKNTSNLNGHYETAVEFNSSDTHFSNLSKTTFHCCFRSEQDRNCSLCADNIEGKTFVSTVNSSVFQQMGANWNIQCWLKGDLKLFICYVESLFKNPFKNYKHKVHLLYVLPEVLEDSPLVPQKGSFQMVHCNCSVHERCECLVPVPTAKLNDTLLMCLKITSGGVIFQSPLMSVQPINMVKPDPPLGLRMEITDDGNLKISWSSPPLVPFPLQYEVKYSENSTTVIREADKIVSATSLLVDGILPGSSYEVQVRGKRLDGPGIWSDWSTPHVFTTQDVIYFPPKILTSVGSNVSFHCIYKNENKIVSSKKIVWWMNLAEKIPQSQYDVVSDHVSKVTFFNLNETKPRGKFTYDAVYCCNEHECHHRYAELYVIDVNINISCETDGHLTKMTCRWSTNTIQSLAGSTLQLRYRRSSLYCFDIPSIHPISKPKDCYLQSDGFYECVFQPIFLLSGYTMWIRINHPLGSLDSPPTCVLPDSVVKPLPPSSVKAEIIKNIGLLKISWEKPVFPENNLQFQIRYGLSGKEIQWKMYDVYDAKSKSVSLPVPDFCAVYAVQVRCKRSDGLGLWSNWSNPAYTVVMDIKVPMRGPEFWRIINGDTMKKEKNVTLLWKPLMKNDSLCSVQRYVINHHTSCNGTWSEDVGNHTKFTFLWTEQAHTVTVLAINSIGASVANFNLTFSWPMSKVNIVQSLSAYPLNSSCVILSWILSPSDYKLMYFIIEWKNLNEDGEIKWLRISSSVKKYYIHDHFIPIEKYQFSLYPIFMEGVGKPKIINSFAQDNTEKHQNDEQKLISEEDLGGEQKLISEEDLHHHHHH

[14] = target: human LEPR extracellular domain expressed with a C-terminal mouse IgG2a Fc tag (hLEPR.mFc) (human); assay: SPR, mAb captured, 37C
human LEPR extracellular domain expressed with a C-terminal mouse IgG2a Fc tag (hLEPR.mFc) (human), sequence (chain, as listed by the source limits assumed): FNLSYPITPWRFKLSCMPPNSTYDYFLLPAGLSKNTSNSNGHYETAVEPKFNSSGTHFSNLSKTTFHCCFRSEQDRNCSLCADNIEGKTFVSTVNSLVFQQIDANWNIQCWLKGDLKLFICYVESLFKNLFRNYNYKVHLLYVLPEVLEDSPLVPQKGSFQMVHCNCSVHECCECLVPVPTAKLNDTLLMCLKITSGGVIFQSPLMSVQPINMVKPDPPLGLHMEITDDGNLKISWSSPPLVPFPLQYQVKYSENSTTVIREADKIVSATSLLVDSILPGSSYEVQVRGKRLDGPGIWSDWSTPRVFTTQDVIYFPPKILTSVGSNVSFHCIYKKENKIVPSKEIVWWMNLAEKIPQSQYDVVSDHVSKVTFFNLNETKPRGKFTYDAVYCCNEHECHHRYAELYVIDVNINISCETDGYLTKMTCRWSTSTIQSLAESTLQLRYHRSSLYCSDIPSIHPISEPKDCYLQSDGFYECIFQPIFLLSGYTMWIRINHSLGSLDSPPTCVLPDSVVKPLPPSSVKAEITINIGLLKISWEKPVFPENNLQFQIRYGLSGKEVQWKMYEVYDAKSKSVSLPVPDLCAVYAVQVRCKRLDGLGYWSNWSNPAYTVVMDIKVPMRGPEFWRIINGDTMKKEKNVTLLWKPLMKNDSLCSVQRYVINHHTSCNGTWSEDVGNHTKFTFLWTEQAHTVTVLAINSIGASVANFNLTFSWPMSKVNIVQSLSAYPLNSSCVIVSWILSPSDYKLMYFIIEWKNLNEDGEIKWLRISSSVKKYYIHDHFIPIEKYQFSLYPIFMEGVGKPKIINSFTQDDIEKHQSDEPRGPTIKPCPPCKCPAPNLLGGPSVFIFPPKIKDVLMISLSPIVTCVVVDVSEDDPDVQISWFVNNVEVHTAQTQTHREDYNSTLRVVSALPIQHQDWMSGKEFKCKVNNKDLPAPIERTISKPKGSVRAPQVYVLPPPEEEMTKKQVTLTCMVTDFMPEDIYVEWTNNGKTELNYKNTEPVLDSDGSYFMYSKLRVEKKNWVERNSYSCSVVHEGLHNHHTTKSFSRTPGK

[15] = target: human LEPR extracellular domain expressed with a C-terminal myc-myc-hexahistidine tag (hLEPR.mmh) (human) (UniProt P48357); assay: SPR, mAb captured, 37C
[16] = target: Mycx2-hLepR(ecto)-GPI anchored, on HEK293/hLEPR-GPI cells (human) (UniProt P48357); assay: FACS, 70 nM Ab, HEK293/hLEPR-GPI
[17] = target: macaca fascicularis LEPR extracellular domain expressed with a C-terminal myc-myc-hexahistidine tag (mfLEPR.mmh) (Macaca fascicularis); assay: SPR, mAb captured, 25C
[18] = target: human LEPR extracellular domain expressed with a C-terminal mouse IgG2a Fc tag (hLEPR.mFc) (human); assay: SPR, mAb captured, 25C
[19] = target: human LEPR extracellular domain expressed with a C-terminal myc-myc-hexahistidine tag (hLEPR.mmh) (human) (UniProt P48357); assay: SPR, mAb captured, 25C
[20] = target: full length human LEPR (amino acids 1-1165 of P48357, Isoform B), on cells (human) (UniProt P48357); assay: FACS, 70 nM Ab, HEK293/Stat3-luc/hLEPR-FL

Luminex MFI [1] [MFI] | Luminex MFI [2] [MFI] | Luminex MFI [3] [MFI] | Luminex MFI [4] [MFI] | Luminex MFI [5] [MFI] | Luminex MFI [6] [MFI] | Luminex MFI [7] [MFI] | Luminex MFI [8] [MFI] | Luminex MFI [9] [MFI] | Binding Ratio [10] [fold] | % blockade [11] [%] | Binding Ratio [12] [fold] | 100 nM mfLEPR.MMH Bound (RU) [13] [RU] | 100 nM hLEPR-mFc Bound (RU) [14] [RU] | 100 nM hLEPR-MMH Bound (RU) [15] [RU] | Binding Ratio [16] [fold] | 100 nM mfLEPR.MMH Bound (RU) [17] [RU] | 100 nM hLEPR-mFc Bound (RU) [18] [RU] | 100 nM hLEPR-MMH Bound (RU) [19] [RU] | Binding Ratio [20] [fold] | Substance
7110 | 10 | 19 | 27 | 9400 | 3910 | -57 | 73 | -14 | 112 | 99 | 2350 |  |  |  |  |  |  |  |  | Comparator mAb (Fab9F8 described in Fazeli et al. 2006 and Carpenter et al. 2012) (antibody)
 |  |  |  |  |  |  |  |  | 4 | -3 | 6 | 1 | 1 | 6 | 2 | 0 | -2 | 4 | 2 | Isotype Control mAb (antibody)
 |  |  |  |  |  |  |  |  |  | 32 |  |  |  |  |  |  |  |  |  | Mouse IgG2a Isotype control (antibody)
